Data published in publication PMC10104300, “Conserved intramolecular networks in GDAP1 are closely connected to CMT-linked mutations and protein stability” (PLOS ONE, 2023).

Legend:
[1] = molecular target: wild-type GDAP1 (GDAP1Δ303–358) (human) (UniProt Q8TB36); assay: batch-mode SAXS; concentration range 1–4 mg/ml, P12 beamline EMBL/DESY
[2] = molecular target: the molecule itself; assay: SEC-SAXS; Arg310 mutants in GDAP1Δ319–358, at lower concentration than all the other mutants; BioSEC3-300 column, 25 mM HEPES pH 7.5, 300 mM NaCl, +15°C; two peaks (dimer and monomer)
[3] = molecular target: the molecule itself; assay: SEC-SAXS; variants in GDAP1Δ303–358; 100 μl at 1.7–36 mg/ml (maximum concentration for each variant) injected onto a BioSEC3-300 column, 25 mM HEPES pH 7.5, 300 mM NaCl, +15°C; top of the peak analysed

wild-type GDAP1 (GDAP1Δ303–358), sequence (Q8TB36 whole entry, stated change not applied, the tested form may be a part): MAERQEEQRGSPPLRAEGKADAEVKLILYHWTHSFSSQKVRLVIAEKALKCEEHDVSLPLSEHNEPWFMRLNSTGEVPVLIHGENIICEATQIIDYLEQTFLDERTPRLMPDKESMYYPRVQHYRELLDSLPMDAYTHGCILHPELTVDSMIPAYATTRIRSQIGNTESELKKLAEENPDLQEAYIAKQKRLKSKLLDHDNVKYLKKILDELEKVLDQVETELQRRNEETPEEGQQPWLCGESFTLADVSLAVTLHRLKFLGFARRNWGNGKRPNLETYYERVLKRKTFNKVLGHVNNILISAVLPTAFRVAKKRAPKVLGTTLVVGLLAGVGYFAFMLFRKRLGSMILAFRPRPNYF

| Molecule | stoichiometry N [3] | further results |
| --- | --- | --- |
| wild-type GDAP1 (GDAP1Δ303–358) (from UniProt Q8TB36-1 1-302) (domain or fragment) | – | stoichiometry N [1]: 2 |
| GDAP1Δ319–358 R310Q (domain or fragment, human, UniProt Q8TB36-1 1-318, looked up, human GDAP1 lacking residues 319-358 (GDAP1Δ319–358) with the CMT-linked mutation R310Q; CMT disease variant; eluted as dimer (main peak) and monomer; source: E. coli BL21(DE3), autoinduction, purified (Ni-NTA, TEV cleavage, reverse Ni-NTA, SEC); not shown: His6, N-terminal, cleaved) MAERQEEQRGSPPLRAEGKADAEVKLILYHWTHSFSSQKVRLVIAEKALKCEEHDVSLPLSEHNEPWFMRLNSTGEVPVLIHGENIICEATQIIDYLEQTFLDERTPRLMPDKESMYYPRVQHYRELLDSLPMDAYTHGCILHPELTVDSMIPAYATTRIRSQIGNTESELKKLAEENPDLQEAYIAKQKRLKSKLLDHDNVKYLKKILDELEKVLDQVETELQRRNEETPEEGQQPWLCGESFTLADVSLAVTLHRLKFLGFARRNWGNGKRPNLETYYERVLKRKTFNKVLGHVNNILISAVLPTAFQVAKKRAPK | – | stoichiometry N [2]: 2 |
| GDAP1Δ319–358 R310W (domain or fragment, human, UniProt Q8TB36-1 1-318, looked up, human GDAP1 lacking residues 319-358 (GDAP1Δ319–358) with the CMT-linked mutation R310W; CMT disease variant; eluted as monomer (highest peak) and dimer; source: E. coli BL21(DE3), autoinduction, purified (Ni-NTA, TEV cleavage, reverse Ni-NTA, SEC); not shown: His6, N-terminal, cleaved) MAERQEEQRGSPPLRAEGKADAEVKLILYHWTHSFSSQKVRLVIAEKALKCEEHDVSLPLSEHNEPWFMRLNSTGEVPVLIHGENIICEATQIIDYLEQTFLDERTPRLMPDKESMYYPRVQHYRELLDSLPMDAYTHGCILHPELTVDSMIPAYATTRIRSQIGNTESELKKLAEENPDLQEAYIAKQKRLKSKLLDHDNVKYLKKILDELEKVLDQVETELQRRNEETPEEGQQPWLCGESFTLADVSLAVTLHRLKFLGFARRNWGNGKRPNLETYYERVLKRKTFNKVLGHVNNILISAVLPTAFWVAKKRAPK | – | stoichiometry N [2]: 2 |
| GDAP1Δ303–358 R120Q (domain or fragment, human, UniProt Q8TB36-1 1-302, looked up, human GDAP1 lacking residues 303-358 (GDAP1Δ303–358) with the CMT-linked mutation R120Q; CMT disease variant; source: E. coli BL21(DE3), autoinduction, purified (Ni-NTA, TEV cleavage, reverse Ni-NTA, SEC); not shown: His6, N-terminal, cleaved) MAERQEEQRGSPPLRAEGKADAEVKLILYHWTHSFSSQKVRLVIAEKALKCEEHDVSLPLSEHNEPWFMRLNSTGEVPVLIHGENIICEATQIIDYLEQTFLDERTPRLMPDKESMYYPQVQHYRELLDSLPMDAYTHGCILHPELTVDSMIPAYATTRIRSQIGNTESELKKLAEENPDLQEAYIAKQKRLKSKLLDHDNVKYLKKILDELEKVLDQVETELQRRNEETPEEGQQPWLCGESFTLADVSLAVTLHRLKFLGFARRNWGNGKRPNLETYYERVLKRKTFNKVLGHVNNILIS | 2 | – |
| GDAP1Δ303–358 H256R (domain or fragment, human, UniProt Q8TB36-1 1-302, looked up, human GDAP1 lacking residues 303-358 (GDAP1Δ303–358) with the CMT-linked mutation H256R; CMT disease variant; source: E. coli BL21(DE3), autoinduction, purified (Ni-NTA, TEV cleavage, reverse Ni-NTA, SEC); not shown: His6, N-terminal, cleaved) MAERQEEQRGSPPLRAEGKADAEVKLILYHWTHSFSSQKVRLVIAEKALKCEEHDVSLPLSEHNEPWFMRLNSTGEVPVLIHGENIICEATQIIDYLEQTFLDERTPRLMPDKESMYYPRVQHYRELLDSLPMDAYTHGCILHPELTVDSMIPAYATTRIRSQIGNTESELKKLAEENPDLQEAYIAKQKRLKSKLLDHDNVKYLKKILDELEKVLDQVETELQRRNEETPEEGQQPWLCGESFTLADVSLAVTLRRLKFLGFARRNWGNGKRPNLETYYERVLKRKTFNKVLGHVNNILIS | 2 | – |
| GDAP1Δ303–358 R161H (domain or fragment, human, UniProt Q8TB36-1 1-302, looked up, human GDAP1 lacking residues 303-358 (GDAP1Δ303–358) with the CMT-linked mutation R161H; CMT disease variant; source: E. coli BL21(DE3), autoinduction, purified (Ni-NTA, TEV cleavage, reverse Ni-NTA, SEC); not shown: His6, N-terminal, cleaved) MAERQEEQRGSPPLRAEGKADAEVKLILYHWTHSFSSQKVRLVIAEKALKCEEHDVSLPLSEHNEPWFMRLNSTGEVPVLIHGENIICEATQIIDYLEQTFLDERTPRLMPDKESMYYPRVQHYRELLDSLPMDAYTHGCILHPELTVDSMIPAYATTRIHSQIGNTESELKKLAEENPDLQEAYIAKQKRLKSKLLDHDNVKYLKKILDELEKVLDQVETELQRRNEETPEEGQQPWLCGESFTLADVSLAVTLHRLKFLGFARRNWGNGKRPNLETYYERVLKRKTFNKVLGHVNNILIS | 2 | – |
| GDAP1Δ303–358 R282H (domain or fragment, human, UniProt Q8TB36-1 1-302, looked up, human GDAP1 lacking residues 303-358 (GDAP1Δ303–358) with the CMT-linked mutation R282H; CMT disease variant; source: E. coli BL21(DE3), autoinduction, purified (Ni-NTA, TEV cleavage, reverse Ni-NTA, SEC); not shown: His6, N-terminal, cleaved) MAERQEEQRGSPPLRAEGKADAEVKLILYHWTHSFSSQKVRLVIAEKALKCEEHDVSLPLSEHNEPWFMRLNSTGEVPVLIHGENIICEATQIIDYLEQTFLDERTPRLMPDKESMYYPRVQHYRELLDSLPMDAYTHGCILHPELTVDSMIPAYATTRIRSQIGNTESELKKLAEENPDLQEAYIAKQKRLKSKLLDHDNVKYLKKILDELEKVLDQVETELQRRNEETPEEGQQPWLCGESFTLADVSLAVTLHRLKFLGFARRNWGNGKRPNLETYYEHVLKRKTFNKVLGHVNNILIS | 2 | – |
| GDAP1Δ303–358 A247V (domain or fragment, human, UniProt Q8TB36-1 1-302, looked up, human GDAP1 lacking residues 303-358 (GDAP1Δ303–358) with the CMT-linked mutation A247V; CMT disease variant; source: E. coli BL21(DE3), autoinduction, purified (Ni-NTA, TEV cleavage, reverse Ni-NTA, SEC); not shown: His6, N-terminal, cleaved) MAERQEEQRGSPPLRAEGKADAEVKLILYHWTHSFSSQKVRLVIAEKALKCEEHDVSLPLSEHNEPWFMRLNSTGEVPVLIHGENIICEATQIIDYLEQTFLDERTPRLMPDKESMYYPRVQHYRELLDSLPMDAYTHGCILHPELTVDSMIPAYATTRIRSQIGNTESELKKLAEENPDLQEAYIAKQKRLKSKLLDHDNVKYLKKILDELEKVLDQVETELQRRNEETPEEGQQPWLCGESFTLVDVSLAVTLHRLKFLGFARRNWGNGKRPNLETYYERVLKRKTFNKVLGHVNNILIS | 2 | – |
